Ends that are not written are not given here.

In test [1] the target is T1, PACAP38 peptide fragment 34-38 (human, ends and bridges not checked).
T1 construct: also called peptide No. 17; RVKNK
T1 peptide: RVKNK
The test can be described thus: SPR (Biacore 3000), solution competition with the peptide for antibody binding to immobilised full-length PACAP38; % inhibition. The method, then:
(§1) The binding epitopes of anti-PACAP antibodies were evaluated by using the Biacore 3000 biosensor-based instrument (GE Healthcare USA). The Biacore 3000 instrument utilizes surface plasmon resonance (SPR) technology to measure mass increase on the sensor-chip surface. The binding interactions are measured in real-time and recorded as Response Units (RU). Each binding profile (cycle) is stored in a “sensorgram” in real-time. Generally, Biacore technology entails immobilizing a ligand of interest on to a flow-cell of the sensor-chip via a coupling chemistry. The analyte (e.g. putative binding partner to the ligand of interest) is injected across the immobilized ligand allowing it to bind to the ligand-immobilized surface. The magnitude of the response is directly proportional to the mass increase on the immobilized surface due to the binding of the analyte.
(§2) In this experiment, various peptide fragments of PACAP38 were incubated with each of the six antibodies (mAb1, mAb2, mAb3, mAb4, mAb5, and mAb6) described in Example 2 and evaluated for their ability to inhibit binding of the antibodies to full-length PACAP38 immobilized on the sensor-chip. The binding epitopes for each of the antibodies were deduced from the set of peptides that were able to inhibit the binding of each antibody to full-length PACAP38.
(§3) Each of the six anti-PACAP antibodies was incubated at a 1:200 molar ratio (Ab: peptide fragment) with each of the peptide fragments in Table 9 at an ambient temperature for 2 hours prior to analysis. […] A second control containing 6.5 nM antibody was prepared in sample diluent to be used as the untreated control sample for each antibody. Full-length PACAP38, buffer, and each peptide fragment were also tested to evaluate non-specific binding to the immobilized PACAP38 surface.
In general terms: In SPR one partner is held on a chip, and binding of the other changes the refractive index at the surface.

A further test deals with T2, 30-37.
T2 construct: also called PACAP38 peptide fragment 30-37; peptide No. 19
T2 peptide: RYKQRVKN
Described as above. Here is the method: as §1, §2, §3

Test [2] deals with T3, PACAP38 peptide fragment 6-20 (human).
T3 construct: also called peptide No. 13
T3 peptide: FTDSYSRYRKQMAVK
The test is described as above. The method, then: as §1, §2, §3

The target in the next test is T4, 31-38 (ends and bridges not checked).
T4 construct: also called PACAP38 peptide fragment 31-38; peptide No. 5
T4 peptide: YKQRVKNK
Described as above. Here is the method: as §1, §2, §3

The target of a further test is T5, human PACAP27 (human, not fully specified).
T5 peptide: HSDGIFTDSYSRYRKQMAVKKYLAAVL
The test is described as follows: cell-based or functional assay.

The target in test [3] is T6, full-length human PACAP38 (human, not fully specified).
T6 construct: Corresponds to amino acids 132-169 of the precursor (NP 001108.2); The description says natural PACAP38 is C-terminally amidated; also called Full-length PACAP38
T6 peptide: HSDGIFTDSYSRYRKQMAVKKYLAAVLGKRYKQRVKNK
The test can be described thus: ELISA screen of B-cell culture supernatant; full-length PACAP38 at 10 ng/mL. From the text:
(§4) Rabbits were immunized with human PACAP38 peptide ([…]; SEQ ID NO: 1). Monoclonal antibodies were generated from the immunized rabbits using the Selected Lymphocyte Antibody Method (SLAM) as described in Babcook et al., Proc. Natl. Acad. Sci. USA, Vol. 93: 7843-7848, 1996. Briefly, B cells were harvested from spleens from the immunized rabbits and expanded in culture. The supernatant from the expanded B-cell cultures was initially screened for binding to an amino terminal PACAP38 peptide ([…]; SEQ ID NO: 5) and a carboxy terminal PACAP38 peptide ([…]; SEQ ID NO: 4) using an ELISA assay. From the initial screen, 2,935 N-terminal and/or C-terminal binders were identified. The affinity of these antibodies for full-length human PACAP38 (SEQ ID NO: 1) was assessed by ELISA assay.
For orientation: In an ELISA, binding on a coated surface is turned into a signal by an enzyme label.

Test [4] concerns the target T6, full-length human PACAP38. The test can be described thus: cell-based or functional assay.
In test [5] the target is T7, carboxy terminal PACAP38 peptide (amino acids 28-38) (human, ends and bridges not checked).
T7 construct: also called C-terminal Peptide; C-terminal PACAP peptide
T7 peptide: GKRYKQRVKNK
The test is described as follows: ELISA screen of B-cell culture supernatant; C-terminal peptide at 500 ng/mL.
Source text: as §4

Test [6] has as its target T8, vasoactive intestinal peptide (VIP) (human).
T8 construct: also called human VIP
T8 peptide: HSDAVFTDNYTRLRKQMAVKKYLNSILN
The test can be described thus: ELISA screen of B-cell culture supernatant; VIP at 100 ng/mL.

For test [7], the target named is T7, carboxy terminal PACAP38 peptide (amino …). The test can be described thus: ELISA screen of B-cell culture supernatant.
The target of test [8] is T9, PACAP38 peptide fragment 6-38 (human, not fully specified).
T9 construct: also called peptide No. 11
T9 peptide: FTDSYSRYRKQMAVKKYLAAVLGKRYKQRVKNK
The test can be described thus: SPR (Biacore 3000), solution competition: antibody pre-incubated 2 h with the peptide at 1:200 molar ratio (Ab:peptide), then injected over immobilised full-length PACAP38; readout % inhibition of antibody binding (filing counts >50 % as reactive). The method, then:
as §1, §2, §3

The target in test [9] is T10, PACAP38 peptide fragment 6-36 (human).
T10 construct: also called peptide No. 12
T10 peptide: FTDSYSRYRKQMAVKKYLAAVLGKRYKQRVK
The description is as above. The method, then: as §1, §2, §3

The target in test [10] is T11, PACAP38 peptide fragment 6-37 (human).
T11 construct: also called peptide No. 3
T11 peptide: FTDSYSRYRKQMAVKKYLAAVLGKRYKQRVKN
The description is as above. Here is the method:
as §1, §2, §3

The target in test [11] is T12, PACAP38 peptide fragment 14-38 (human, not fully specified).
T12 construct: also called peptide No. 7
T12 peptide: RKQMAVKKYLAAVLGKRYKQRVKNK
The test is described as above. Here is the method:
as §1, §2, §3

B1: mAb5 (antibody, V domains shown)
VH: QSVEESGGRLVTPGTPLTLTCTVSGFSLSTYNMCWVRQAPGKGLEWVGFINSDDSAYYASWAKGRFTFSKTSTTVDLKIASPTTEDTATYFCARYDWDYYYSRLDLWGPGTLVTVSS
VL: DIVLTQTPASVSAAVGGTVSISCQSSESVYNNNYLSWFQQKPGQPPKLLIYGASTLASGVPSRFEGSGSGTQFTLTISDVQCDDAATYYCLGDYIIIENIFGGGTEVVVKG
notes: Rabbit monoclonal antibody (SLAM), recombinant; also called monoclonal anti-PACAP antibody 5; 5 (c71)
B1: the binding result in [1] is listed as “no binding (tested: 1:200 molar ratio (Ab:peptide))”; with 30-37, “no binding (tested: 1:200 molar ratio (Ab:peptide))”; in test [2], “no binding (tested: 1:200 molar ratio (Ab:peptide))”; with 31-38 it was “no binding (tested: 1:200 molar ratio (Ab:peptide))”; in test [7], “no binding (tested: 500 ng/mL)”; in test [8], “binds”. The binding result in test [9] and in test [10] was “binds” in each case. Also, in the test with human PACAP27, the “IC50: inhibition of PACAP27 (10 pM)-induced activation of human PAC1 receptor, cAMP assay in SH-SY5Y (CRL-2266) cells, POC versus antibody concentration” value was found to be 26 nM. Further, the “Optical Density” value in [3] came to 3.21 OD; in test [5], 0.05 OD; in test [6], 0.12 OD. Also, in test [4], the “IC50: inhibition of PACAP38 (10 pM)-induced activation of human PAC1 receptor, cAMP assay in SH-SY5Y (CRL-2266) cells, POC versus antibody concentration” value is 1 nM.

B2: mAb6 (antibody, V domains shown)
VH: QLEESGGGLVQPGASLTLTCTTSGFSLSDNYLCWVRQAPGRGLEWVACIGIVLRSTGATYYASWAEGRFTISKTSPTTVTLEMTSLTAADTATYFCALDLGYGGPLWGPGTLVTVSS
VL: AQVLTQTPASVSAAVGGTVTINCQASQSVYNNKNLAWYQQKPGQPPKLLIYFSSTLASGVPSRFRGSGSGTQFTLTISGVQCGDAATYYCLGEFGSIWAFGGGTEVVVKG
notes: Rabbit monoclonal antibody (SLAM), recombinant; also called monoclonal anti-PACAP antibody 6; 6 (c55)
In the case of B2, the binding result was “no binding (tested: 1:200 molar ratio (Ab:peptide))” in [1]; “no binding (tested: 1:200 molar ratio (Ab:peptide))” in the test with 30-37; “no binding (tested: 1:200 molar ratio (Ab:peptide))” in test [2]; “no binding (tested: 1:200 molar ratio (Ab:peptide))” with 31-38; “no binding (tested: 500 ng/mL)” in test [7]; “binds” in test [8]. Besides, the binding result in test [11], in [9] and in test [10] was “binds” throughout. For the same molecule, the “IC50: inhibition of PACAP27 (10 pM)-induced activation of human PAC1 receptor, cAMP assay in SH-SY5Y (CRL-2266) cells, POC versus antibody concentration” value with human PACAP27 was determined as 0.5 nM. Moreover, the “Optical Density” value in test [3] was found to be 3.55 OD; in test [5], 0.05 OD; in test [6], 0.95 OD. Moreover, the “IC50: inhibition of PACAP38 (10 pM)-induced activation of human PAC1 receptor, cAMP assay in SH-SY5Y (CRL-2266) cells, POC versus antibody concentration” value in test [4] worked out at 0.6 nM.

B3: mAb2 (antibody, V domains shown)
VH: QSLEESGGGLVQPEGSLTLTCTASGFSFNSSSYMCWVRQAPGKGLEWIGCIFTGSSGNTYYATWAQGRFTISKTSTTVTLEMTSLTAADTATYFCARDRAYFLVGYFYATYYFDLWGPGTLVTVSS
VL: DVVMTQTPSPVSAQVGGTVTINCQASESIDSDLSWYQQKPGQPPKLLIYRTFTLESGVPSRFKGSGSGTDYTLTISDLECADAAIYYCQCTDGSSISGSYGWDAFGGGTEVVVKG
notes: Rabbit monoclonal antibody (SLAM), recombinant; also called monoclonal anti-PACAP antibody 2; 2 (c81)
On to B3, for which the binding result in [2] was “no binding (tested: 1:200 molar ratio (Ab:peptide))”; in test [8], “binds”; in [11], “binds”; in [10] it was “binds”. The “IC50: inhibition of PACAP27 (10 pM)-induced activation of human PAC1 receptor, cAMP assay in SH-SY5Y (CRL-2266) cells, POC versus antibody concentration” value with human PACAP27 was over 1 uM. Besides, the “Optical Density” value in test [3] was determined as 3.39 OD; in test [5] it was 3.74 OD; in [6], 0.09 OD. In [4], the “IC50: inhibition of PACAP38 (10 pM)-induced activation of human PAC1 receptor, cAMP assay in SH-SY5Y (CRL-2266) cells, POC versus antibody concentration” value turned out to be 0.4 nM.
